Source: IntAct's records for PubMed 15886098

B1: Ras and Rab interactor 1 (Homo sapiens), Q13671 (parent)
chain: MESPGESGAGSPGAPSPSSFTTGHLAREKPAQDPLYDVPNASGGQAGGPQRPGRVVSLRERLLLTRPVWLQLQANAAAALHMLRTEPPGTFLVRKSNTRQCQALCMRLPEASGPSFVSSHYILESPGGVSLEGSELMFPDLVQLICAYCHTRDILLLPLQLPRAIHHAATHKELEAISHLGIEFWSSSLNIKAQRGPAGGPVLPQLKARSPQELDQGTGAALCFFNPLFPGDLGPTKREKFKRSFKVRVSTETSSPLSPPAVPPPPVPVLPGAVPSQTERLPPCQLLRRESSVGYRVPAGSGPSLPPMPSLQEVDCGSPSSSEEEGVPGSRGSPATSPHLGRRRPLLRSMSAAFCSLLAPERQVGRAAAALMQDRHTAAGQLVQDLLTQVRAGPEPQELQGIRQALSRARAMLSAELGPEKLLSPKRLEHVLEKSLHCSVLKPLRPILAARLRRRLAADGSLGRLAEGLRLARAQGPGAFGSHLSLPSPVELEQVRQKLLQLLRTYSPSAQVKRLLQACKLLYMALRTQEGEGAGADEFLPLLSLVLAHCDLPELLLEAEYMSELLEPSLLTGEGGYYLTSLSASLALLSGLGQAHTLPLSPVQELRRSLSLWEQRRLPATHCFQHLLRVAYQDPSSGCTSKTLAVPPEASIATLNQLCATKFRVTQPNTFGLFLYKEQGYHRLPPGALAHRLPTTGYLVYRRAEWPETQGAVTEEEGSGQSEARSRGEEQGCQGDGDAGVKASPRDIREQSETTAEGGQGQAQEGPAQPGEPEAEGSRAAEE
B2: Tyrosine-protein kinase ABL2 (Homo sapiens), P42684 (parent)
chain: MGQQVGRVGEAPGLQQPQPRGIRGSSAARPSGRRRDPAGRTTETGFNIFTQHDHFASCVEDGFEGDKTGGSSPEALHRPYGCDVEPQALNEAIRWSSKENLLGATESDPNLFVALYDFVASGDNTLSITKGEKLRVLGYNQNGEWSEVRSKNGQGWVPSNYITPVNSLEKHSWYHGPVSRSAAEYLLSSLINGSFLVRESESSPGQLSISLRYEGRVYHYRINTTADGKVYVTAESRFSTLAELVHHHSTVADGLVTTLHYPAPKCNKPTVYGVSPIHDKWEMERTDITMKHKLGGGQYGEVYVGVWKKYSLTVAVKTLKEDTMEVEEFLKEAAVMKEIKHPNLVQLLGVCTLEPPFYIVTEYMPYGNLLDYLRECNREEVTAVVLLYMATQISSAMEYLEKKNFIHRDLAARNCLVGENHVVKVADFGLSRLMTGDTYTAHAGAKFPIKWTAPESLAYNTFSIKSDVWAFGVLLWEIATYGMSPYPGIDLSQVYDLLEKGYRMEQPEGCPPKVYELMRACWKWSPADRPSFAETHQAFETMFHDSSISEEVAEELGRAASSSSVVPYLPRLPILPSKTRTLKKQVENKENIEGAQDATENSASSLAPGFIRGAQASSGSPALPRKQRDKSPSSLLEDAKETCFTRDRKGGFFSSFMKKRNAPTPPKRSSSFREMENQPHKKYELTGNFSSVASLQHADGFSFTPAQQEANLVPPKCYGGSFAQRNLCNDDGGGGGGSGTAGGGWSGITGFFTPRLIKKTLGLRAGKPTASDDTSKPFPRSNSTSSMSSGLPEQDRMAMTLPRNCQRSKLQLERTVSTSSQPEENVDRANDMLPKKSEESAAPSRERPKAKLLPRGATALPLRTPSGDLAITEKDPPGVGVAGVAAAPKGKEKNGGARLGMAGVPEDGEQPGWPSPAKAAPVLPTTHNHKVPVLISPTLKHTPADVQLIGTDSQGNKFKLLSEHQVTSSGDKDRPRRVKPKCAPPPPPVMRLLQHPSICSDPTEEPTALTAGQSTSETQEGGKKAALGAVPISGKAGRPVMPPPQVPLPTSSISPAKMANGTAGTKVALRKTKQAAEKISADKISKEALLECADLLSSALTEPVPNSQLVDTGHQLLDYCSGYVDCIPQTRNKFAFREAVSKLELSLQELQVSSAAAGVPGTNPVLNNLLSCVQEISDVVQR
partner: B1 chain

Variants of: B1
Conditions: with abl2_human ABL2, P42684

Row | Variant | effect of a mutation on the interaction
1 | Y36F;Y121F;Y148F | decreasing interaction

Variants of: B2
Conditions: with rin1_human RIN1, Q13671

Row | Variant | effect of a mutation on the interaction
2 | K317R | decreasing interaction
